What was measured:
[1] = molecular target: LRID Fab fused to the GPI signal sequence from decay accelerating factor, on SP2/0 cells (Fab-GPI); assay: cell-based or functional assay
[2] = molecular target: LRID Fab fused to the transmembrane portion of glycophorin A, on SP2/0 cells (Fab-GlycoA); assay: cell-based or functional assay
Chain of LRID Fab fused to the transmembrane portion of glycophorin A, on SP2/0 cells (Fab-GlycoA) (VH, as listed by the source limits assumed, chain 1 of 2): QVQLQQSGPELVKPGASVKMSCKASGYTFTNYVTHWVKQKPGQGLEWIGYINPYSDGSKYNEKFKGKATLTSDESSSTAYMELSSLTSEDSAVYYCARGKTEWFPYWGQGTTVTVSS
Chain of LRID Fab fused to the transmembrane portion of glycophorin A, on SP2/0 cells (Fab-GlycoA) (VL, as listed by the source limits assumed, chain 2 of 2): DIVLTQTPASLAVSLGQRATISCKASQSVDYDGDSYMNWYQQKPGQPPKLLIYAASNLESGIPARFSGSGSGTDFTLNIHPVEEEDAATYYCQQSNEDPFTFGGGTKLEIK

Chain of LRID Fab fused to the GPI signal sequence from decay accelerating factor, on SP2/0 cells (Fab-GPI) (VH, as listed by the source limits assumed, chain 1 of 2): as the sequence (VH, as listed by the source limits assumed, chain 1 of 2) above
Chain of LRID Fab fused to the GPI signal sequence from decay accelerating factor, on SP2/0 cells (Fab-GPI) (VL, as listed by the source limits assumed, chain 2 of 2): as the sequence (VL, as listed by the source limits assumed, chain 2 of 2) above

B1: SM03 (antibody, V domains shown)
VH: QVQLQESGGGLVKPGGSLKLSCAASGFAFSIYDMSWVRQTPEKRLEWVAYISSGGGTTYYPDTVKGRFTISRDNAKNTLYLQMSSLKSEDTAMYYCARHSGYGSSYGVLFAYWGQGTLVTVSS
VL: DIQLTQTTSSLSASLGDRVTISCRASQDISNYLNWYQQKPDGTVKLLIYYTSILHSGVPSRFSGSGSGTDYSLTISNLEQEDFATYFCQQGNTLPWTFGGGTKLEIKR
modifications: here or on the partner: The mature protein on cells carries a GPI anchor in place of the cleaved DAF signal; the letters cannot show this.
With B1 the CMC activities, maximum killing [1] was > 90%, the CMC killing of surrogate target cells, EC50 [1] was 220 µg/mL and the CMC activities, maximum killing [2] was > 90%. For the same binder, the CMC killing of surrogate target cells, EC50 [2] was 130 µg/mL.
